Assay results: patent US20230034768A1 (BIOSION, published 2023)
Changes are numbered by the printed parent chain. Read-outs that look alike come from different tables or passages of the source. Values belong to the binder of their own block, whether it stands above or below them.

Tests used:
[1] = target: T1, biotin-labeled human RANKL-Fc protein (prepared in house, SEQ ID NO.: 40) (human, biotin-labeled (sites not given)); assay: competitive ELISA: antibody blocks biotin-labeled human RANKL-Fc binding to coated benchmark denosumab
T1 construct: also called RANKL-Fc-biotin

[2] = target: T1, biotin-labeled human RANKL-Fc protein …; assay: capture ELISA: captured antibody, biotin-labeled human RANKL-Fc, OD(450-630)
Procedure: (§1) Plates were washed once with wash buffer (PBS+0.05% v/v Tween-20, PBST) and then blocked with 200 μl/well blocking buffer (5% w/v non-fatty milk in PBST) for 2 hours at 37° C. […] After a final wash, plates were incubated with 100 μl/well ELISA substrate TMB (Innoreagents, Cat #TMB-S-002) at room temperature. The reaction was stopped in 3-10 minutes with 50 μl/well 1M H₂SO₄, and the absorbance of each well was read on a microplate reader using dual wavelengths mode with 450 nm for TMB and 630 nm as the reference wavelength. The OD (450-630) values were plotted against antibody concentration. Data were analyzed using Graphpad Prism software and EC₅₀ values were reported.
For the capture ELISA, 96-well micro plates were coated with 2 μg/ml goat anti-human IgG (AffiniPure Goat Anti-Human IgG, F(ab′)₂ fragment specific, Jackson Immunoresearch, Cat #109-005-097) instead of AffiniPure Goat Anti-Mouse IgG, Fcγ fragment specific, 100 μl/well.

[3] = target: T1, biotin-labeled human RANKL-Fc protein …; assay: as above; remark: listed apart in the source
Procedure: as §1

[4] = target: T1, biotin-labeled human RANKL-Fc protein …; assay: as above; remark: listed apart in the source
Procedure: as §1
Cell supernatants were harvested after six days in shaking flasks, spun down to pellet cells, and then chimeric antibodies were purified from cell supernatants as described above. The purified antibodies were tested in the capture ELISA, competitive ELISA assay and Octet affinity test following the protocols in the foregoing Examples.

[5] = target: T2, Recombinant human RANKL-his protein (R&D, Cat #6449-TEC-010) (human, UniProt O14788 140-317, limits assumed); assay: cell-based or functional assay
T2 sequence (looked up): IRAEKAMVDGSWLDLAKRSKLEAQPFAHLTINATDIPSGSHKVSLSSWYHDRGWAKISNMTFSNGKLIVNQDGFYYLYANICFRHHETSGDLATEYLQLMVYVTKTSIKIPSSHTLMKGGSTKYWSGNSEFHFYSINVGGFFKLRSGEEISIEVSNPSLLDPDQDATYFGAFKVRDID

[6] = target: T3, human RANKL-his protein (prepared in-house with SEQ ID NO: 43) (human, UniProt O14788 136-317); assay: Octet BLI, antibody captured, human RANKL-his in solution (same value as Table 2)
T3 construct: also called recombinant human RANKL-his
T3 chain: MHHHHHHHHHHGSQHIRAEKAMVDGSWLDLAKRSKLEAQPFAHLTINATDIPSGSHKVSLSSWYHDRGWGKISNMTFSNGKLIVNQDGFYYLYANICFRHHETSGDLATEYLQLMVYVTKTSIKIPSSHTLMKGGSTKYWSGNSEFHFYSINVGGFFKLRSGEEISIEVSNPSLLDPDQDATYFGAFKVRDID
Procedure: (§2) Briefly, AHC/AMC biosensors (anti-human/anti-mouse IgG Fc capture, ForteBio) were presoaked with 10 mM glycine (pH 1.5) for 3 seconds, and then dipped in a well with running buffer (0.5% w/v BSA in PBST) for 3 seconds, the soaking and dipping steps were repeated for three times. […] A new baseline was run for 180 seconds in another well with HBS-EP⁺. […] Finally, sensors were presoaked with 10 mM glycine (pH 1.5) for 3 seconds, and then dipped in a well with running buffer for 3 seconds, the soaking and dipping steps repeated for three times. The association and dissociation curves were fit to a 1:1 Langmuir binding model using Octet evaluation software.

[7] = target: T1, biotin-labeled human RANKL-Fc protein …; assay: competitive ELISA: antibody blocks biotin-labeled human RANKL-Fc binding to coated benchmark denosumab; remark: listed apart in the source
Procedure: The next day, plates were washed with wash buffer, and blocked with 5% w/v non-fatty milk in PBST, 200 μl/well, for 2 hours at 37° C. […] After incubation at 37° C. for 40 minutes, plates were washed 4 times using wash buffer. Then the plates were added and incubated with 100 μl Peroxidase Streptavidin (1:5000 dilution in PBST buffer, Jackson Immunoresearch, Cat #016-030-084) for 40 minutes at 37° C. Plates were washed again using wash buffer. Finally, TMB was added and the reaction was stopped using 1M H₂SO₄. The absorbance of each well was read on a microplate reader using dual wavelengths mode with 450 nm for TMB and 630 nm as the reference wavelength, and the OD (450-630) values were plotted against antibody concentration. Data were analyzed using Graphpad Prism software and IC₅₀ values were reported.

[8] = target: T2, Recombinant human RANKL-his protein …; assay: cell-based or functional assay; remark: listed apart in the source
[9] = target: T1, biotin-labeled human RANKL-Fc protein …; assay: competitive ELISA: antibody blocks biotin-labeled human RANKL-Fc binding to coated human RANK-Fc
Procedure: (§3) Briefly, human RANK-Fc proteins (prepared in house, SEQ ID NO.: 41) were coated on 96-well micro plates at 2.0 μg/mL in PBS, 100 μl/well, and incubated overnight at 4° C. The next day, plates were washed with wash buffer (PBS+0.05% w/v Tween-20, PBST), and blocked with 5% w/v non-fatty milk in PBST, 200 μl/well, for 2 hours at 37° C.
(§4) Plates were washed 4 times using wash buffer, and added and incubated with 100 μl/well of streptavidin conjugated HRP (1:10000 dilution in PBST buffer, Jackson ImmunoResearch Laboratories, Inc., Cat #016-030-084) for 40 minutes at 37° C. Plates were washed again using wash buffer. Finally, TMB was added and the reaction was stopped using 1M H₂SO₄, and the absorbance of each well was read on a microplate reader using dual wavelengths mode with 450 nm for TMB and 630 nm as the reference wavelength. The OD (450-630) values were plotted against antibody concentration. Data were analyzed using Graphpad Prism software and IC₅₀ values were reported.

[10] = target: T1, biotin-labeled human RANKL-Fc protein …; assay: as above; remark: listed apart in the source
Procedure: as §3, §4

[11] = target: T3, human RANKL-his protein (prepared …); assay: Octet BLI, antibody captured on AHC/AMC sensor, human RANKL-his in solution, 1:1 fit
Procedure: as §2

[12] = target: T2, Recombinant human RANKL-his protein …; assay: cell-based or functional assay; remark: listed apart in the source
[13] = target: T2, Recombinant human RANKL-his protein …; assay: cell-based or functional assay; remark: listed apart in the source
[14] = target: T2, Recombinant human RANKL-his protein …; assay: cell-based or functional assay; remark: listed apart in the source

- IC50 [1]: 1.28 nM
- EC50 [2]: 0.632 nM
- EC50 [3]: 0.0826 nM
- EC50 [4]: 1.11 nM
- IC50, RANKL-induced osteoclast differentiation of RAW264.7 cells (pNPP, OD405) [5]: 3.41 nM
- Kd [6]: 0.0718 nM
- IC50 [7]: 0.391 nM
- IC50, RANKL-induced osteoclast differentiation of RAW264.7 cells (pNPP, OD405) [8]: 0.839 nM
- IC50 [9]: 0.0802 nM
- IC50 [10]: 0.414 nM
- Kd [11]: 0.0718 nM
- koff [11]: 7.9e-05 s⁻¹
- kon [11]: 1.1e+06 M⁻¹ s⁻¹
B1: mouse anti-RANKL monoclonal antibody D1A1 (antibody, V domains shown)
VH: EVQLVESGGGLVKSGGSLKLSCAASGFTFRNYAMSWVRQTPEKRLEWVAGISSGGTYTYYPDTVKGRFTISRDNARNTLFLQMSSLRSEDTAMYYCARRDYGDVYEWYFDVWGTGTTVTVSS
VL: DIVMTQSHKFMSTSVGDRVSITCKASQDVRTSIAWYQQKPGQSPNLLIYSASYRYTGVPDRFTGSGSGTDFTFTISSVQAEDLAVYYCQQHYSSPWTFGGGTKLEIK
notes: Hybridoma-derived mouse IgG purified on Protein A; also called Mouse D1A1

- EC50 [3]: 0.0464 nM
- EC50 [4]: 0.246 nM
- IC50 [7]: 0.164 nM
- IC50, RANKL-induced osteoclast differentiation of RAW264.7 cells (pNPP, OD405) [12]: 0.998 nM
- IC50 [9]: 0.0365 nM
B2: mouse anti-RANKL monoclonal antibody D1E3 (antibody, V domains shown)
VH: B1 VH with S14P, R30S, N31R, N74S, R76K, T78I, F80Y, S84G, T91S, Y95H
VL: B1 VL with T13A, D28G, T31I, S32A, I33V, N45K, Y92H
notes: Hybridoma-derived mouse IgG; also called Mouse D1E3

- EC50 [3]: 0.583 nM
- IC50 [9]: 2.1 nM
- IC50, RANKL-induced osteoclast differentiation of RAW264.7 cells (pNPP, OD405) [13]: 1.31 nM
B3: mouse anti-RANKL monoclonal antibody B4H5 (antibody, V domains shown)
VH: DVQLQESGPDLVKPSQSLSLTCTVTGYSISSGYSWHWIRQFPGNKLEWMDYIHFSGSTNYNPSLKSRISITRDTSKNQFFLQFISVTTEDTATYYCARSGPSTYVMDYWGQGTSVTVSS
VL: DIVMTQSHRFMSTSVGDRVSITCKASQDVGAAVGWYQQKPGQSPKLLIYWASIRDTGVPDRFTGSGSGTDFTLTISNVQSEDLADYFCQHYNSYPLTFGGGTKLEIK
notes: Hybridoma-derived mouse IgG

- IC50, RANKL-induced osteoclast differentiation of RAW264.7 cells (pNPP, OD405) [14]: 0.967 nM
- EC50 [3]: 0.397 nM
- EC50 [4]: 0.493 nM
- Kd [6]: 0.386 nM
- IC50 [7]: 0.498 nM
- IC50 [9]: 0.26 nM
- Kd [11]: 0.386 nM
- koff [11]: 0.000236 s⁻¹
- kon [11]: 611000 M⁻¹ s⁻¹
B4: mouse anti-RANKL monoclonal antibody B1A8 (antibody, V domains shown)
VH: EVQLVESGGDLVKPGGSLKLSCAASGFTFSRYGMSWVRQTPDKRLEWVASISSGGTYTSYPDSVQGRFTITRDSAKNTLYLQMSSLKSEDTAMYYCARRNFITSATDCYFDVWGAGTTVTVSS
VL: DTVLTQSPATLSVTPGASVSLSCRASQSISNNLHWYQQKSHESPRLLIIYASQSISGIPSRFSGSGSGTDFTLSINSVETEDFGVYFCQQSNSWPFTFGGGTKLEIK
notes: Hybridoma-derived mouse IgG; also called Mouse B1A8
